Patent publication US20090075925A1, “Methods and Compositions Related to APOBEC-1 Expression” (priority 2006, published 2009)

Experiments:
apoB mRNA editing [1] = experiment: apoB mRNA editing in McArdle cells (ethanol, ACF wild type, mutants and isoforms); type: cell-based, rat; details: for effect of isoform expression on editing: HA-tagged, transfected McArdle cells
Method: McArdle RH7777 cells (ATCC Manassas, Va.) stably expressing HA epitope-tagged APOBEC-1 (Yang et al. J Biol Chem 272:27700-6 (1997)) were treated for 4 hours with 0.9% ethanol and fractionated into nuclear extracts (Van Mater et al. (1998)).
To calibrate the system cells were incubated in the presence of ethanol for 4 hours and the amount of edited apoB mRNA determined.
The overall expression and subcellular localization of epitope tagged ACF isoforms is established by western blotting of nuclear and cytoplasmic extracts (prepared using NE-PER system; Pierce). These biochemical studies are complemented by immunofluorescence microscopy of paraformaldehyde fixed cells reacted with epitope tag or ACF isoform-specific antibodies. In pilot experiments varying levels of HA-tagged ACF43 and ACF45 were expressed by transfecting differing amounts of cDNA into McArdle or McAPOBEC cells (FIGS. 35A & C, western blots). […] The above transient transfection scenarios can be recapitulated in ethanol treated cells to evaluate the affect of ACF isoform abundance on cells ability to respond to metabolic perturbation. […] ACF expression levels, subcellular localization and editing activity are determined from replicate experiments and the relative affects of overexpressing each isoform compared in the absence (negative control) or presence of ethanol and to the response seen in wild type cells (positive control).

apoB mRNA editing [2] = experiment: apoB mRNA editing in McAPOBEC cells transfected with ACF isoforms; type: cell-based, rat; details: HA-tagged
Excerpt: The overall expression and subcellular localization of epitope tagged ACF isoforms is established by western blotting of nuclear and cytoplasmic extracts (prepared using NE-PER system; Pierce). These biochemical studies are complemented by immunofluorescence microscopy of paraformaldehyde fixed cells reacted with epitope tag or ACF isoform-specific antibodies. In pilot experiments varying levels of HA-tagged ACF43 and ACF45 were expressed by transfecting differing amounts of cDNA into McArdle or McAPOBEC cells (FIGS. 35A & C, western blots). The level of exogenously expressed HA-tagged APOBEC-1 in McAPOBEC cells was high and unaffected by ACF isoform expression (FIG. 35C). Sufficient endogenous ACF was expressed in McAPOBEC cells to support 61% editing (FIG. 35D, poisoned primer extension) given the level of APOBEC-1 overexpression (FIG. 35C). […] ACF43's facilitation of ACF64/65 binding to apoB mRNA enhanced editing activity only when APOBEC-1 abundance was not rate limiting (analogous to FIG. 34, insulin). […] ACF expression levels, subcellular localization and editing activity are determined from replicate experiments and the relative affects of overexpressing each isoform compared in the absence (negative control) or presence of ethanol and to the response seen in wild type cells (positive control).

B1: ACF64: 64 kDa ACF variant, SEQ ID NO:1 (protein)
chain: MESNHKSGDGLSGTQKEAALRALVQRTGYSLVQENGQRKYGGPPPGWDAAPPERGCEIFIGKLPRDLFEDELIPLCEKIGKIYEMRMMMDFNGNNRGYAFVTFSNKVEAKNAIKQLNNYEIRNGRLLGVCASVDNCRLFVGGIPKTKKREEILSEMKKVTNEGVVDVIVYPSAADKTKNRGFAFVEYESHRTAAMARRKLLPGRIQLWGHGIAVDWAEPEVEVDEDTMSSVKILYVRNLMLSTSEEMIEKEFNNIKPGAVERVKKIRDYAFVHFSNRKDAVEAMKALNGKVLDGSPIEVTLAKPVDKDSYVRYTRGTGGRGTMLQGEYTYSLGQVYDPTTTYLGAPVFYAPQTYAAIPSLHFPATKGHLSNRAIIRAPSVRGAAGVRGLGGRGYLAYTGLGRGYQVKGDKREDKLYDILPGMELTPMNPVTLKPQGIKLAPQILEEICQKNNWGQPVYQLHSAIGQDQRQLFLYKITIPALASQNPAIHPFTPPKLSAFVDEAKTYAAENYTLQTLGIPTDGGDGTMATAAAAATAFPGYAVPNATAPVSAAQLKQAVTLGQDLAAYTNTYEVYPTFAVTARGDGYGTF
stimulation of editing by stable ectopic expression compared to untransfected McArdle cells (apoB mRNA editing [1]; stable cell line): 19%
further stimulation of editing on addition of ethanol (apoB mRNA editing [1]; stable cell line, ethanol): 3 fold

B2: S154D: ACF64 with serine 154 to aspartic acid substitution (protein)
chain: MESNHKSGDGLSGTQKEAALRALVQRTGYSLVQENGQRKYGGPPPGWDTTPPERGCEIFIGKLPRDLFEDELIPLCEKIGKIYEMRMMMDFNGNNRGYAFVTFSNKQEAKNAIKQLNNYEIRNGRLLGVCASVDNCRLFVGGIPKTKKREEILDEMKKVTEGVVDVIVYPSAADKTKNRGFAFVEYESHRAAAMARRRLLPGRIQLWGHPIAVDWAEPEVEVDEDTMSSVKILYVRNLMLSTSEEMIEKEFNSIKPGAVERVKKIRDYAFVHFSNREDAVEAMKALNGKVLDGSPIEVTLAKPVDKDSYVRYTRGTGGRNTMLQEYTYPLSHVYDPTTTYLGAPVFYTPQAYAAIPSLHFPATKGHLSNRALIRTPSVRGAAGVRGLGGRGYLAYTGLGRGYQVKGDKRQDKLYDLLPGMELTPMNTISLKPQGVKLAPQILEEICQKNNWGQPVYQLHSAIGQDQRQLFLYKVTIPALASQNPAIHPFTPPKLSAYVDEAKRYAAEHTLQTLGIPTEGGDAGTTAPTATSATVFPGYAVPSATAPVSTAQLKQAVTLGQDLAAYTTYEVYPTFAVTTRGDGYGTF
enhancement of editing (apoB mRNA editing [1]; stable McArdle cell line): 67%

B3: ACF43: 43 kDa ACF variant, SEQ ID NO:19 (protein)
chain: MESNHKSGDGLSGTQKEAALRALVQRTGYSLVQENGQRKYGGPPPGWDAAPPERGCEIFIGKLPRDLFEDELIPLCEKIGKIYEMRMMMDFNGNNRGYAFVTFSNKVEAKNAIKQLNNYEIRNGRLLGVCASVDNCRLFVGGIPKTKKREEILSEMKKVTEGVVDVIVYPSAADKTKNRGFAFVEYESHRAAAMARRKLLPGRIQLWGHGIAVDWAEPEVEVDEDTMSSVKILYVRNLMLSTSEEMIEKEFNNIKPGAVERVKKIRDYAFVHFSNRKDAVEAMKALNGKVLDGSPIEVTLAKPVDKDSYVRYTRGTGGRGTMLQGEYTYSLGQVYDPTTTYLGAPVFYAPQTYAAIPSLHFPATKGHLSNRAIIRAPSVRGAAGVRGLGGRGYLAYTGLGRGYQVKGDKREDKLYDILPGMELTPMNPVTLKPQGIKLAPQILEEICQKNNWGQPVYQLHSAIGQDQRQLFLYKITIPALASQNPAIHPFTPPKLSAFVDEAKTYAAEYTLQTLGIPTDGGDGTMATAAAAATAFPGYAVPNATAPVSAAQLKQAVTLGQDLAAYTTYEVYPTFAVTARGDGYGTF
effect of isoform expression on editing (apoB mRNA editing [1]): did not affect editing
effect of isoform expression on editing (61% editing without) (apoB mRNA editing [2]): stimulated editing activity

B4: ACF45: 45 kDa ACF variant, SEQ ID NO:18 (protein)
chain: B3 chain
effect of isoform expression on editing (apoB mRNA editing [1]): inhibited editing over two-fold
effect of isoform expression on editing (61% editing without) (apoB mRNA editing [2]): had no affect
